US20070253950A1

How the values were obtained:
[1] = target: human RAGE-strep tag fusion protein (human) (UniProt Q15109); assay: BIACORE capture assay: hRAGE-SA over antibody captured on anti-human Fc; steady state affinity; FC2
[2] = target: human RAGE-strep tag fusion protein (human) (UniProt Q15109); assay: BIACORE capture assay: hRAGE-SA over antibody captured on anti-human Fc; steady state affinity; FC3
[3] = target: human RAGE-strep tag fusion protein (human) (UniProt Q15109); assay: BIACORE capture assay: hRAGE-SA over antibody captured on anti-human Fc; steady state affinity; FC4
[4] = target: human RAGE-strep tag fusion protein (human) (UniProt Q15109); assay: BIACORE capture assay: hRAGE-SA over antibody captured on anti-human Fc; 1:1 Langmuir global fit; FC2
[5] = target: human RAGE-strep tag fusion protein (human) (UniProt Q15109); assay: BIACORE capture assay: hRAGE-SA over antibody captured on anti-human Fc; 1:1 Langmuir global fit; FC3
[6] = target: human RAGE-strep tag fusion protein (human) (UniProt Q15109); assay: BIACORE capture assay: hRAGE-SA over antibody captured on anti-human Fc; 1:1 Langmuir global fit; FC4
[7] = target: human RAGE-strep tag fusion protein (human) (UniProt Q15109); assay: BIACORE capture assay: hRAGE-SA over antibody captured on anti-human Fc; steady state affinity; average of FC2-FC4
[8] = target: murine RAGE-strep tag fusion protein (murine) (UniProt Q62151); assay: BIACORE capture assay: mRAGE-SA (SA-Mu RAGE) over antibody captured on anti-human Fc; 1:1 Langmuir global fit; FC2
[9] = target: murine RAGE-strep tag fusion protein (murine) (UniProt Q62151); assay: BIACORE capture assay: mRAGE-SA (SA-Mu RAGE) over antibody captured on anti-human Fc; 1:1 Langmuir global fit; FC3
[10] = target: murine RAGE-strep tag fusion protein (murine) (UniProt Q62151); assay: BIACORE capture assay: mRAGE-SA (SA-Mu RAGE) over antibody captured on anti-human Fc; 1:1 Langmuir global fit; FC4
[11] = target: human RAGE-strep tag fusion protein (human) (UniProt Q15109); assay: BIACORE capture assay: hRAGE-SA over antibody captured on anti-human Fc; 1:1 Langmuir global fit; average of FC2-FC4
[12] = target: murine RAGE-strep tag fusion protein (murine) (UniProt Q62151); assay: BIACORE capture assay: mRAGE-SA (SA-Mu RAGE) over antibody captured on anti-human Fc; 1:1 Langmuir global fit; average of FC2-FC4

murine RAGE-strep tag fusion protein (murine), sequence (Q62151 other isoform, or with tags, fused parts or gaps): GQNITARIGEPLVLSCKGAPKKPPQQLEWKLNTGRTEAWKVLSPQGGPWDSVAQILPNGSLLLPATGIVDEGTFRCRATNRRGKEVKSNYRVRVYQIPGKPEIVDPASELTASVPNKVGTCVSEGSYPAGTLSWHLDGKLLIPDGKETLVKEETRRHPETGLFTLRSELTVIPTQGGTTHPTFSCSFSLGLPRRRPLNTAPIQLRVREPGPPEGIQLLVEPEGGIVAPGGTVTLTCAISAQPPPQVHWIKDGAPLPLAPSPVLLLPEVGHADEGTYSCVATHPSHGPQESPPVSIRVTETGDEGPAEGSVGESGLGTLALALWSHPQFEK
human RAGE-strep tag fusion protein (human), sequence (Q15109 other isoform, or with tags, fused parts or gaps): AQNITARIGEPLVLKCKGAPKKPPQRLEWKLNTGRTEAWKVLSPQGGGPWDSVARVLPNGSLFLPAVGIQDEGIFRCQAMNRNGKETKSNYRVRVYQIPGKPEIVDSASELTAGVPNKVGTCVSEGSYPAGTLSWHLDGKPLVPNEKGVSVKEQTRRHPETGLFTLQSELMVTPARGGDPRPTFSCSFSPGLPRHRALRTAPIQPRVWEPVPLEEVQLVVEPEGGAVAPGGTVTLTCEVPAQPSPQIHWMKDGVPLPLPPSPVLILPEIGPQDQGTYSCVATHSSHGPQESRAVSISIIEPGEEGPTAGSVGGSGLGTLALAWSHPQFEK

Row | Binder | Kd [1] [nM] | Kd [2] [nM] | Kd [3] [nM] | Kd [4] [nM] | koff [4] [s⁻¹] | kon [4] [M⁻¹ s⁻¹] | Kd [5] [nM] | koff [5] [s⁻¹] | kon [5] [M⁻¹ s⁻¹] | Kd [6] [nM] | koff [6] [s⁻¹] | kon [6] [M⁻¹ s⁻¹] | Kd [7] [nM] | Kd [8] [nM] | koff [8] [s⁻¹] | kon [8] [M⁻¹ s⁻¹] | Kd [9] [nM] | koff [9] [s⁻¹] | kon [9] [M⁻¹ s⁻¹] | Kd [10] [nM] | also measured
1 | XT-M4-V10 (antibody, from a related filing, V domains shown) VH: EVQLVESGGGLVQPGGSLRLSCAASGFTFNNYWMTWVRQAPGKGLEWVASIDNSGDNTYYPDSVKDRFTISRDNAKNSLYLQMNSLRAEDTAVYYCARGGDITTGFDYWGQGTLVTVSS VL: DIQMTQSPSSLSASVGDRVTITCRASQDVGIYVNWFQQKPGKAPKRLIYRATNLADGVPSRFSGSGSGTDFTLTISSLQPEDFATYYCLEFDEHPLTFGGGTKVEIK | 25 | 24 | 26 | 31.8 | 0.00972 | 306000 | 18.2 | 0.0569 | 3.13e+06 | 20.3 | 0.0704 | 3.47e+06 | 25 | 3 | 0.0078 | 2.6e+06 | 2.9 | 0.0076 | 2.6e+06 | 3 | koff [10]: 0.0078 s⁻¹; kon [10]: 2.6e+06 M⁻¹ s⁻¹; Kd [11]: 23.4 nM; koff [11]: 0.0457 s⁻¹; kon [11]: 2.3e+06 M⁻¹ s⁻¹; Kd [12]: 3 nM; koff [12]: 0.0077 s⁻¹; kon [12]: 2.6e+06 M⁻¹ s⁻¹
2 | XT-M4-V11 (antibody, from a related filing, V domains shown) VH: EVQLVESGGGLVQPGGSLRLSCAASGFTFNNYWMTWVRQAPGKGLEWVASIDNSGDNTYYPDSVKDRFTISRDNAKNSLYLQMNSLRAEDTAVYYCARGGDITTGFDYWGQGTLVTVSS VL: DIQMTQSPSSLSASVGDRVTITCRASQDVGIYVNWFQQKPGKAPRRLIYRATNLADGVPSRFSGSRSGTDFTLTISSLQPEDFATYYCLEFDEHPLTFGGGTKVEIK | 16 | 15 | 17 | 13 | 0.033 | 2.5e+06 | 12 | 0.039 | 3.4e+06 | 13 | 0.041 | 3.2e+06 | 16 | 2 | 0.0043 | 2.2e+06 | 2 | 0.0042 | 2.1e+06 | 2 | koff [10]: 0.0041 s⁻¹; kon [10]: 2e+06 M⁻¹ s⁻¹; Kd [11]: 12.5 nM; koff [11]: 0.0374 s⁻¹; kon [11]: 3.01e+06 M⁻¹ s⁻¹; Kd [12]: 2 nM; koff [12]: 0.0042 s⁻¹; kon [12]: 2.1e+06 M⁻¹ s⁻¹
3 | XT-M4-V14 (antibody, from a related filing, V domains shown) VH: EVQLVESGGGLVQPGGSLRLSCAASGFTFNNYWMTWVRQAPGKGLEWVASIDNSGDNTYYPDSVKDRFTISRDNAKNSLYLQMNSLRAEDTAVYYCARGGDITTGFDYWGQGTLVTVSS VL: DIQMTQSPSSLSASVGDRVTITCRASQDVGIYVNWFQQKPGKAPKRLIYRATNLADGVPSRFSGSRSGTDFTLTISSLQPEDFATYYCLEFDEHPLTFGGGTKVEIK | 16 | 15 | 16 | 13.8 | 0.0366 | 2.66e+06 | 11.7 | 0.0464 | 3.96e+06 | 13.2 | 0.0661 | 5.02e+06 | 16 | 2 | 0.0043 | 2.2e+06 | 1.9 | 0.004 | 2.1e+06 | 2 | koff [10]: 0.0041 s⁻¹; kon [10]: 2.1e+06 M⁻¹ s⁻¹; Kd [11]: 12.9 nM; koff [11]: 0.0497 s⁻¹; kon [11]: 3.88e+06 M⁻¹ s⁻¹; Kd [12]: 2 nM; koff [12]: 0.0042 s⁻¹; kon [12]: 2.1e+06 M⁻¹ s⁻¹
